Data: publication PMC10441386 (bioRxiv, 2023)
Non-standard residues stand in square brackets, D forms with d. No end group written: not given here. Trp(5-OH) = N[C@@H](Cc1c[nH]c2ccc(O)cc12)C(=O)O; Phe(4-NH2) = Nc1ccc(C[C@H](N)C(=O)O)cc1

Target: T1, PSD-95 PDZ3cα (residues R309-S422) (Homo sapiens, UniProt P78352)
Assay: SPR binding of peptides to immobilized PDZ3cα
Conditions: not given

T1 sequence (P78352 309-422): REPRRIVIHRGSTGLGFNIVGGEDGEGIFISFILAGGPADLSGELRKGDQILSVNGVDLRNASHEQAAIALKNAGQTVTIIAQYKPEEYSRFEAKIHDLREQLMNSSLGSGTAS

Molecule | Kd
GSFPPWVQ [aC binder, reference compound] | 11.1 µM
RRRRRRGSHPPWVQQTRV [F4H] | 0.121 µM
CC(C)[C@H](NC(=O)[C@H](CCCNC(=N)N)NC(=O)[C@@H](NC(=O)[C@H](CCC(N)=O)NC(=O)[C@H](CCC(N)=O)NC(=O)[C@@H](NC(=O)[C@H](Cc1c[nH]c2ccccc12)NC(=O)[C@H]1CCCN1C(=O)[C@@H]1CCCN1C(=O)[C@H](Cc1ccccc1)NC(=O)[C@H](CO)NC(=O)CNC(=O)[C@H](CCCNC(=N)N)NC(=O)[C@H](CCCNC(=N)N)NC(=O)[C@H](CCCNC(=N)N)NC(=O)[C@H](CCCNC(=N)N)NC(=O)[C@H](CCCNC(=N)N)NC(=O)[C@@H](N)CCCNC(=N)N)C(C)C)[C@@H](C)O)C(=O)O [D-Pro5] | 0.0243 µM
CC(C)[C@H](NC(=O)[C@H](CCCNC(=N)N)NC(=O)[C@@H](NC(=O)[C@H](CCC(N)=O)NC(=O)[C@H](CCC(N)=O)NC(=O)[C@@H](NC(=O)[C@H](Cc1c[nH]c2ccccc12)NC(=O)[C@@H]1CCCN1C(=O)[C@@H]1CCCN1C(=O)[C@H](Cc1ccccc1)NC(=O)[C@@H](CO)NC(=O)CNC(=O)[C@H](CCCNC(=N)N)NC(=O)[C@H](CCCNC(=N)N)NC(=O)[C@H](CCCNC(=N)N)NC(=O)[C@H](CCCNC(=N)N)NC(=O)[C@H](CCCNC(=N)N)NC(=O)[C@@H](N)CCCNC(=N)N)C(C)C)[C@@H](C)O)C(=O)O [D-Ser3] | 0.0078 µM
RRRRRRGSFPPWIQQTRV [V8I] | 0.101 µM
CC(C)[C@H](NC(=O)[C@H](CCCNC(=N)N)NC(=O)[C@@H](NC(=O)[C@H](CCC(N)=O)NC(=O)[C@H](CCC(N)=O)NC(=O)[C@@H](NC(=O)[C@H](Cc1c[nH]c2ccccc12)NC(=O)[C@@H]1CCCN1C(=O)[C@H]1CCCN1C(=O)[C@H](Cc1ccccc1)NC(=O)[C@H](CO)NC(=O)CNC(=O)[C@H](CCCNC(=N)N)NC(=O)[C@H](CCCNC(=N)N)NC(=O)[C@H](CCCNC(=N)N)NC(=O)[C@H](CCCNC(=N)N)NC(=O)[C@H](CCCNC(=N)N)NC(=O)[C@@H](N)CCCNC(=N)N)C(C)C)[C@@H](C)O)C(=O)O [D-Pro4] | 0.0061 µM
RRRRRRGSFPPWLQQTRV [V8L] | 0.0584 µM
CC(C)[C@H](NC(=O)[C@H](CCCNC(=N)N)NC(=O)[C@@H](NC(=O)[C@H](CCC(N)=O)NC(=O)[C@@H](CCC(N)=O)NC(=O)[C@@H](NC(=O)[C@H](Cc1c[nH]c2ccccc12)NC(=O)[C@@H]1CCCN1C(=O)[C@@H]1CCCN1C(=O)[C@H](Cc1ccccc1)NC(=O)[C@H](CO)NC(=O)CNC(=O)[C@H](CCCNC(=N)N)NC(=O)[C@H](CCCNC(=N)N)NC(=O)[C@H](CCCNC(=N)N)NC(=O)[C@H](CCCNC(=N)N)NC(=O)[C@H](CCCNC(=N)N)NC(=O)[C@@H](N)CCCNC(=N)N)C(C)C)[C@@H](C)O)C(=O)O [D-Gln9] | 0.0573 µM
CC(C)[C@H](NC(=O)[C@H](CCCNC(=N)N)NC(=O)[C@@H](NC(=O)[C@H](CCC(N)=O)NC(=O)[C@H](CCC(N)=O)NC(=O)[C@H](NC(=O)[C@H](Cc1c[nH]c2ccccc12)NC(=O)[C@@H]1CCCN1C(=O)[C@@H]1CCCN1C(=O)[C@H](Cc1ccccc1)NC(=O)[C@H](CO)NC(=O)CNC(=O)[C@H](CCCNC(=N)N)NC(=O)[C@H](CCCNC(=N)N)NC(=O)[C@H](CCCNC(=N)N)NC(=O)[C@H](CCCNC(=N)N)NC(=O)[C@H](CCCNC(=N)N)NC(=O)[C@@H](N)CCCNC(=N)N)C(C)C)[C@@H](C)O)C(=O)O [D-Val8] | 0.0209 µM

Target: T1, PSD-95 PDZ3cα (residues R309-S422)
Assay: SPR
Conditions: not given

koff | kon | Molecule
0.0261 s⁻¹ | 216000 M⁻¹ s⁻¹ | SYNGAP peptide F4H
0.00294 s⁻¹ |  | SYNGAP peptide V8I
0.00381 s⁻¹ |  | SYNGAP peptide V8L

Tested on: AS mouse model
Assay: AS mouse model / animal studies
Type: in vivo
Conditions: data to be reported elsewhere

Molecule | effect in AS mouse model / animal studies
CC(C)[C@H](NC(=O)[C@H](CCCNC(=N)N)NC(=O)[C@@H](NC(=O)[C@H](CCC(N)=O)NC(=O)[C@H](CCC(N)=O)NC(=O)[C@@H](NC(=O)[C@H](Cc1c[nH]c2ccccc12)NC(=O)[C@@H]1CCCN1C(=O)[C@@H]1CCCN1C(=O)[C@H](Cc1ccccc1)NC(=O)[C@H](CO)NC(=O)CNC(=O)[C@H](CS)NC(=O)[C@H](CS)NC(=O)[C@H](CCCNC(=N)N)NC(=O)[C@H](CCCNC(=N)N)NC(=O)[C@H](CCCNC(=N)N)NC(=O)[C@H](CCCNC(=N)N)NC(=O)[C@H](CCCNC(=N)N)NC(=O)[C@H](CCCNC(=N)N)NC(=O)[C@@H](N)CCCNC(=N)N)C(C)C)[C@@H](C)O)C(=O)O [SYNGAP] | did not have the same beneficial effects as Syn3

Target: PSD-95 PDZ3cα protein (residues R309-S422) (UniProt P78352 309-422)
Sequence (P78352 309-422): as above
Assay: SPR
Conditions: not given

Molecule | koff | kon
GSFPPWVQ [aC binder peptide] | 0.00592 s⁻¹ | 1000 M⁻¹ s⁻¹
RRRRRRGSFPPW[dV]QQTRV [SYNGAP peptide D-Val8] | 0.0459 s⁻¹ | 2.19e+06 M⁻¹ s⁻¹
D-Syn3 (cysteine pairing not given here; also: D- prefix in name, meaning not given here) chain 1: RRRRRRRC chain 2: CGSFPPWVQKTEV | 0.0125 s⁻¹ | 458000 M⁻¹ s⁻¹
RRRRRRGSFPPWV[dQ]QTRV [SYNGAP peptide D-Gln9] | 0.0182 s⁻¹ | 317000 M⁻¹ s⁻¹
CGSFPPWVKKTEV (not fully specified) [Syn3*] | 0.0287 s⁻¹ | 439000 M⁻¹ s⁻¹

Other lines, results leading:

koff | kon | Molecule
0.00493 s⁻¹ | 633000 M⁻¹ s⁻¹ | RRRRRRG[dS]FPPWVQQTRV [SYNGAP peptide D-Ser3]
0.0444 s⁻¹ | 1.83e+06 M⁻¹ s⁻¹ | RRRRRRGSFP[dP]WVQQTRV [SYNGAP peptide D-Pro5]
0.0116 s⁻¹ | 1.88e+06 M⁻¹ s⁻¹ | RRRRRRGSF[dP]PWVQQTRV [SYNGAP peptide D-Pro4]
0.00109 s⁻¹ | 6000 M⁻¹ s⁻¹ | CN2097 (peptide) chain 1: RRRRRRRC chain 2: CKNYKKTEV
0.0106 s⁻¹ | 24000 M⁻¹ s⁻¹ | RRRRRRGSFPP[Trp(5-OH)]VQQTRV [SYNGAP peptide W7-OHW]
0.0104 s⁻¹ | 153000 M⁻¹ s⁻¹ | RRRRRRGS[Phe(4-NH2)]PPWVQQTRV [SYNGAP peptide F4-NH2F]
